Experimental findings from US20250304677A1 (VIB VZW, published 2025) are described below.

Substitutions are numbered along the chain they refer to. Numbers in names are those of the source.

Assay [1] concerns the target T1, human folate receptor alpha (hFRα), recombinant protein (human, UniProt P15328 25-233).
T1 construct: Bought recombinant proteins (His-tagged, or biotinylated via Avi-tag, e.g. AcroBiosystems FO1-H82E2, F01-H52H1); also called hFOLR1; huFOLR1
Description: BLI, periplasmic extract, FRα on AR2G biosensors; unpurified periplasmic extract, BLI off-rate screen. The method, then:
(§1) After panning of core76/77 on human and mouse folate receptor alpha ^{∘}FRα), […] were randomly selected from the second and third rounds and analyzed by ELISA on both human and mouse FRα for the presence of FRα-specific VHHs in their periplasmic extracts ^{∘}PE). This led to the identification of 98 hits. For these 98 hits, the off-rate ^{∘}koff) in the PE was determined by biolayer interferometry ^{∘}BLI) on both mouse and human FRα that was directly immobilized onto AR2G biosensors. The off-rates were calculated using a 1:1 binding model. […] Abbreviations: SE: standard error.

Assay [2] has as its target T1, human folate receptor alpha (hFRα), …. Description: ELISA, periplasmic extract; unpurified periplasmic extract, PE-ELISA (ratio of coated to uncoated well). The source says: From the lymphocytes of each llama a separate VHH library was constructed to select and screen for the presence of antigen-specific VHHs. To this end, total RNA from peripheral blood lymphocytes was used as template for first strand cDNA synthesis with an oligo ^{∘}dT) primer. Using this cDNA, the VHH encoding sequences were amplified by PCR, digested with PstI and NotI, cloned into the PstI and NotI sites of the phagemid vector pMECS and transformed into E. coli to generate VHH libraries. To enrich these libraries for FRα ^{∘}or FOLR1, as used interchangeably herein)-specific VHHs, a combinatorial panning approach on recombinant human and mouse FOLR1 was used followed by random selection and screening of clones by ELISA for the presence of antigen-specific VHHs in their periplasmic extracts ^{∘}PEs). […]
After panning of core76/77 on human and mouse folate receptor alpha ^{∘}FRα), 95 colonies were randomly selected from the second and third rounds and analyzed by ELISA on both human and mouse FRα for the presence of FRα-specific VHHs in their periplasmic extracts ^{∘}PE). […] For these 98 hits, the off-rate ^{∘}koff) in the PE was determined by biolayer interferometry ^{∘}BLI) on both mouse and human FRα that was directly immobilized onto AR2G biosensors. The off-rates were calculated using a 1:1 binding model. […]

Assay [3] has the same target. Briefly: ELISA on recombinant human FOLR1, cMyc tag detection, normalised binding, non-linear fit. The method, then: (§2) Data were normalized and technical replicates were plotted as mean±SD. Data were fitted by non-linear regression and the half-maximal effective concentration ^{∘}EC50) was calculated using GraphPad Prism 9 software. ^{∘}FIG. 1C and FIG. 1D) Binding affinity determination of anti-FOLR1 VHHs for native FOLR1. Mouse ^{∘}FIG. 1C) or human FOLR1 FIG. 1D) was overexpressed on HEK293T cells and binding of the anti-FOLR1 VHHs was assessed using flow cytometry. The mean fluorescence intensity ^{∘}MFI) of the phycoerythrin signal was plotted for each VHH concentration. Data were fitted by non-linear regression using GraphPad Prism 9 software. ^{∘}FIG. 1E) Determination of the competition of representative family members with folic acid ^{∘}FA) using ELISA. Mouse FOLR1 was coated on the plate and was pre-incubated with or without 100 μM FA before adding the VHHs. Data were fitted by non-linear regression using GraphPad Prism 9 software.
(§3) In a first step, binding affinity and cross-reactivity of the purified VHHs to human and mouse FRα was assessed by ELISA, using detection of the cMyc tag ^{∘}FIG. 1A-B). […] 2HFO19 ^{∘}family 1) was the best binder of all tested VHHs to both mouse and human FRα with an EC₅₀ of 0.1 nM and 0.4 nM respectively ^{∘}FIG. 1A-B).

Assay [4] addresses T2, mouse folate receptor alpha (mFRα), recombinant protein (mouse, UniProt P35846 25-232).
T2 construct: Bought recombinant proteins (e.g. biotinylated, Acro Biosystems FO1-M82E9); also called mFOLR1; Ms FOLR1
Briefly: BLI, periplasmic extract, FRα on AR2G biosensors. The method, then: as §1

In assay [5] the target is T3, human folate receptor beta (FRβ) (human, UniProt P14207 17-230, limits assumed).
T3 construct: also called hFOLR2; human FOLR2
Briefly: method not named (follows the ELISA of Example 3).

Assay [6] concerns the target T2, mouse folate receptor alpha (mFRα), …. Briefly: BLI, FRα on AR2G biosensors, 1:1 model. The method, then:
As a next step, the kinetic binding constants were determined using BLI ^{∘}Table 3). […] Similar to the ELISA results ^{∘}FIG. 1A-B), higher binding affinities were measured for mouse FRα than human FRα, with KD values […] one order of magnitude in most cases. […] For 3HFO28, binding to human FRα could not be confirmed by BLI, and this VHH was excluded from further characterization.
The kinetic parameters were calculated using a 1:1 binding model.

The target is the same in assay [7]. Description: ELISA, periplasmic extract.
Source text: From the lymphocytes of each llama a separate VHH library was constructed to select and screen for the presence of antigen-specific VHHs. To this end, total RNA from peripheral blood lymphocytes was used as template for first strand cDNA synthesis with an oligo ^{∘}dT) primer. Using this cDNA, the VHH encoding sequences were amplified by PCR, digested with PstI and NotI, cloned into the PstI and NotI sites of the phagemid vector pMECS and transformed into E. coli to generate VHH libraries. To enrich these libraries for FRα ^{∘}or FOLR1, as used interchangeably herein)-specific VHHs, a combinatorial panning approach on recombinant human and mouse FOLR1 was used followed by random selection and screening of clones by ELISA for the presence of antigen-specific VHHs in their periplasmic extracts ^{∘}PEs). In order to gauge the cross-reactivity for human and mouse FOLR1, each clone was tested on both antigens.
as §1

For assay [8] the target is unchanged. Briefly: ELISA on recombinant mouse FOLR1, cMyc tag detection, normalised binding, non-linear fit. The method, then: as §2, §3
For assay [9], the target named is T1, human folate receptor alpha (hFRα), …. Briefly: ITC, VHH injected into 6.5 µM glycosylated human FOLR1 in PBS, room temperature, single binding site model. The source says: (§4) To exclude the presence of a potential additional binding site mediated by the CDR4 region, we determined the stoichiometry if the humanized variant h1 2HFO42 (P01500001) and h1 2MFR67 (P01500005) interaction with human FOLR1 in isothermal titration […] (ITC) studies, using glycosylated human FOLR protein (AcroBiosystems Cat. Nr F01-H52H1). All proteins were dialysed overnight to PBS buffer and concentrated using Amicon Ultra 10 kDa cut-off centrifugal filter devices. Human FOLR1 was used at a concentration of 6.5 μM in the cell. Titrations comprised 26×1.5 μL injections of VHH into the protein, with 90 s intervals. An initial injection of ligand (0.4 μL) was made and discarded during data analysis. All data were performed at room temperature. The data were fitted to a single binding site model using the PEAQ ITC analysis software provided by the manufacturer.

The target in assay [10] is T2, mouse folate receptor alpha (mFRα), …. Description: BLI, Avi-biotinylated FRα on streptavidin biosensors, VHH 100 nM. The method, then:
(§5) The binding of humanized variants of 2HFO42 was assessed by kinetic binding analysis to mouse and human FRα protein, biotinylated via an Avi-tag, captured on streptavidin biosensors by biolayer interferometry ^{∘}BLI), essentially as described earlier. VHHs were analysed at 100 nM concentration, and off-rates were determined using fitting of 1:1 langmurian interaction. Dissociation constants were compared to 2HFO42^{∘}Q1E, Q5V, Q108L) ^{∘}P101500004) and 2MFR67 ^{∘}Q1E, Q5V, Q108L) ^{∘}P0150000), respectively.

Assay [11] concerns the target T1, human folate receptor alpha (hFRα), …. Described as above. The method, then:
as §5

Assay [12] has as its target T2, mouse folate receptor alpha (mFRα), …. Briefly: ELISA on mouse FRα, anti-VHH detection. In a few lines:
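An ELISA using anti-VHH detection measured how VHH binding to mouse folate receptor alpha changed with dose. Each EC50 was read from the resulting dose-response curve.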

Assay [13] concerns the target T1, human folate receptor alpha (hFRα), …. Briefly: ITC, VHH injected into 6.5 µM glycosylated human FOLR1.
Source text: as §4
Similarly, a stoichiometry of 1:1 was determined for the 2MFR67-FOLR1 interaction. When comparing the thermodynamic parameters, binding of 2MFR67 to FOLR1 comes with an entropic penalty, whereas the entropic contribution for humanised 2HFO42-FOLR1 binding is favorable. This could be a consequence of the CDR4 loop having more freedom in 2MFR67, resulting in an entropic penalty upon binding. […]

For assay [14] the target is unchanged. Description: competition AlphaLISA against 2MFR67-Flag3-His6 on human FRα. The method, then:
Secondly, the variants were analysed for the capacity to compete with binding of family 3 VHH 2MFR67 to human FRα in a competition AlphaLISA, which is a homogeneous assay without wash steps. In here, human FRα biotinylated through an Avi-tag ^{∘}FO1-H82E2, AcroBiosystems) is captured on streptavidin coated Alpha Donor beads ^{∘}Perkin Elmer, Cat nr. 6760002), while the 2MFR67 is captured on anti-Flag antibody AlphaLISA acceptor beads ^{∘}Perkin Elmer, Cat nr. AL112C). Binding of 2MFR67 to the FRα leads to an energy transfer from one bead to the other, ultimately producing a fluorescent signal. To each well of white low binding 384-well microtitre plates ^{∘}F-bottom, Greiner Cat nr 781904), 5 μl of serial-diluted VHHs are mixed with 5 μl of 2.5 nM monovalent 2MFR67-Flag3-His6 and 5 μl of 15 nM biotinylated human FRα protein. After an incubation for 1 hour at room temperature, streptavidin coated Alpha Donor beads and anti-Flag AlphaLISA acceptor beads were added to a final concentration of 20 μg/mL each in a final volume of 25 μl for an incubation of 1 hour at room temperature in the dark. Interaction between beads was assessed after illumination at 680 nm and reading at 615 nm of on an Ensight instrument. Curve fitting is done in Graphpad Prism 9.0 using 4PL non-linear regression analysis.

Assay [15] concerns the target T2, mouse folate receptor alpha (mFRα), …. Description: method of this value not stated (ELISA, BLI and FACS named).
The target is the same in assay [16]. Description: BLI, biotinylated FOLR1 on streptavidin biosensors. The method, then: (§6) The off-rates of the 2HFO9 ^{∘}FIG. 5A) and 2MFR67 ^{∘}FIG. 5B) mutants and the three wild-type ^{∘}WT) VHHs from family 3 were determined by biolayer interferometry ^{∘}BLI) on both mouse and human biotinylated folate receptor alpha ^{∘}FOLR1) that was immobilized on streptavidin biosensors. The off-rates were calculated using a 1:1 binding model. The fold change compared to the off-rates of the corresponding WT VHH is represented as the WT VHH off-rate divided by the off-rate of the mutant for the VHHs that show an improved off-rate compared to the WT. For the VHHs that show a worse off-rate compared to the WT, the fold change is represented as the negative value of the mutant VHH off-rate divided by the WT off-rate. The red bars represent the WT 2HFO9 and 2MFR67 in the upper and lower panel respectively.

Assay [17] deals with T1, human folate receptor alpha (hFRα), …. Description: BLI, biotinylated FOLR1 on streptavidin biosensors. The method, then:
as §6

T2 sequence (P35846 25-232 limits assumed): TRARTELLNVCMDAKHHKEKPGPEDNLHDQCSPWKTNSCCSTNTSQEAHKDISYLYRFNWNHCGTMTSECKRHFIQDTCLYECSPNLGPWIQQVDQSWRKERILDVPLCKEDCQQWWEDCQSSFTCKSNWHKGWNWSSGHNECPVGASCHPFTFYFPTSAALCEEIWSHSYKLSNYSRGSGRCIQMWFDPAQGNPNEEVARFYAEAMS
T1 sequence (P15328 25-233 limits assumed): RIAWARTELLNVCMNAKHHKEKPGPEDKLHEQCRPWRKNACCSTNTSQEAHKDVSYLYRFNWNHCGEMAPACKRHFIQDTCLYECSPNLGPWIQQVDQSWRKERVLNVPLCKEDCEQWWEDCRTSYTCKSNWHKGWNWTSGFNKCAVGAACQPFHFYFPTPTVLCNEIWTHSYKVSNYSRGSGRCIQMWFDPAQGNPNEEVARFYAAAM
T3 sequence (P14207 17-230 limits assumed): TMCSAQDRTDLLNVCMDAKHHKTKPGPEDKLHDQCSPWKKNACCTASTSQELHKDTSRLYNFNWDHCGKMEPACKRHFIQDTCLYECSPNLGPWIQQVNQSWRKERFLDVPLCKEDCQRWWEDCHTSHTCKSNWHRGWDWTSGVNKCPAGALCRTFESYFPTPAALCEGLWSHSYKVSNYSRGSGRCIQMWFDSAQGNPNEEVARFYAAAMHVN

B1: VHH 3HFO28 (family 7) (VHH)
VHH: QVQLQESGGGLVQPGGSLRLSCAASGSTLDRYEIGWFRQAPGKGRERVSCISTTSSTYEDSVKGRFTISRDNAKNTVYLQMNSLKPEDTAVYYCATVRVAWSTCFPTGDSWGKGTQVTVSS
Take B1: the values for the koff in assay [1], in [4] and in [6] were 0.00827 s⁻¹, 0.00425 s⁻¹ and 0.00582 s⁻¹, respectively. In addition, the entries for the “PE-ELISA (ratio to uncoated well)” value in assay [2] and in assay [7] were 35.6 and 34.9, respectively. Further, the EC50 in assay [3] amounted to 1.5 nM; in [8], 84.3 nM. Also, the binding result in assay [5] is “no binding”. For the same molecule, the Kd in assay [6] stood at 12.6 nM. Also, the kon in [6] turned out to be 464000 M⁻¹ s⁻¹.

B2: P01500001 = humanised variant 1 (h1) 2HFO42-His6: 2HF042(Q1E, Q5V, A14P, V40A, L79Y, K83R, Q108L)-HIS6 (VHH)
VHH: EVQLVESGGGLVQPGGSLRLSCAASGSGFSGMIMGWYRQAPGKQRELVATVTSHGTTNYADSVKGRFTISRDNAKNTVYLQMNSLRPEDTAVYYCNAHFPGIYWGKGTLVTVSS
notes: Entry includes the tag; also called P0150001; humanised 2HFO42
Turning to B2, in [9], the “-TΔS” value is -3.04 kcal/mol, the Kd was determined as 39.2 nM, the ΔG is -10.1 kcal/mol and the ΔH was -7.07 kcal/mol. The koff in [10] amounted to 0.00126 s⁻¹. Besides, in assay [11], the koff amounted to 0.011 s⁻¹. Moreover, the “EC50 (read off the curve)” value in [12] is roughly 4 nM. For the same molecule, in assay [13], the “stoichiometry (ITC)” value stood at 1. Besides, the IC50 in [14] is 37.3 nM.

B3: 2HFO42-NT (2HFO42 fused to neurotensin) (VHH)
VHH: B2 VHH with E1Q, V5Q, P14A, A40V, Y79L, R86K, L109Q
Regarding B3, the Kd in [15] came to 23.3 nM. For the same molecule, in assay [16], the “Fold to 2HF042 (koff)” value was 1 and the koff amounted to 0.00222 s⁻¹. For the same molecule, in [17], the “Fold hu/ms (koff)” value is 7 and the koff stood at 0.0154 s⁻¹.

B4: P01500005: 2MFR67(Q1E, Q5V, Q108L)-HIS6 (VHH)
VHH: B2 VHH with P14A, D72E, N73D, A74S, Y79L, R86K
notes: Entry includes the tag; also called 2MFR67 (P01500005); P0150005
In the case of B4, in assay [9], the “-TΔS” value was determined as 3.57 kcal/mol, the Kd amounted to 18.2 nM, the ΔG is -10.6 kcal/mol and the ΔH was -14.1 kcal/mol. The koff in [10] came to 0.000532 s⁻¹. The koff in assay [11] is 0.00353 s⁻¹. Also, the “EC50 (read off the curve)” value in assay [12] is roughly 3 nM. Also, the “stoichiometry (ITC)” value in assay [13] is 1. The IC50 in assay [14] turned out to be 5.53 nM.
